{
  "source": "patent US20130115220A1",
  "about": "“METHOD FOR PREVENTION OR TREATMENT OF METABOLIC SYNDROME” (DAINIPPON SUMITOMO PHARMA CO., LTD., priority 2010, published 2013)",
  "molecules": {"B1": {"name": "rAIM: recombinant AIM protein (rAIM) of mouse, HA-tagged, prepared in HEK293T cells (protein)", "chain": "ESPTKVQLVGGAHRCEGRVEVEHNGQWGTVCDDGWDRRDVAVVCRELNCGAVIQTPRGASYQPPASEQRVLIQGVDCNGTEDTLAQCELNYYVFDCSHEEDAGAQCENPDSDLLFIPEDVRLVDGPGHCQGRVEVLHQSQWSTVCKAGWNLQVSKVVCRQLGCGRALLTYGSCNKNTQGKGPIWMGKMSCSGQEANLRSCLLSRLENNCTHGEDTWMECEDPFELKLVGGDTPCSGRLEVLHKGSWGSVCDDNWGEKEDQVVCKQLGCGKSLHPSPKTRKIYGPGAGRIWLDDVNCSGKEQSLEFCRHRLWGYHDCTHKEDVEVICTDFDV", "modifications": "left off: small tags and cut ends", "notes": "recombinant AIM protein (rAIM) of mouse, HA-tagged, prepared in HEK293T cells"}},
  "key": {"3T3-L1 adipocytes": {"system": "3T3-L1 adipocytes", "experiment": "Expression of lipid droplet formation-related genes and PREF-1 by real-time PCR", "type": "cell-based, mouse", "conditions": "rAIM 5 μg/ml", "experimental": "rAIM was loaded (5 μg/ml) on 3T3-L1 adipocytes, mRNA of lipid droplet formation-related genes (FSP27, Perilipin, and Adipophilin) was measured on day 2, day 4, and day 6 using 7500 Fast Real-Time PCR system (Invitrogen; CA, USA) and by the ΔΔCT method (each n=3).\nSimilarly, mRNA of PREF-1 of preadipocyte marker was also measured. The measurement value was standardized with GAPDH.\nRelative expression level was determined with that on day 0 as 1.0."}, "AIM-/- mice [1]": {"system": "AIM-/- mice", "experiment": "Body weight and fat amount of HFD-fed AIM-/- mice", "type": "in vivo", "conditions": "AIM-/- mice on HFD, intraperitoneal 300 μg/injection/mouse twice a week, 5 weeks, versus BSA", "experimental": "Then, rAIM was intraperitoneally administered twice a week (n=6; 300 μg/injection/mouse) to AIM^−/− mice for 5 weeks while feeding with HFD, and the body weight and adipose tissue amount were measured."}, "3T3-L1 preadipocytes": {"system": "3T3-L1 preadipocytes", "experiment": "Differentiation of 3T3-L1 preadipocytes into mature adipocytes, lipid droplet formation by oil-red-O", "type": "cell-based", "experimental": "To examine the function of AIM produced by macrophage that infiltrated into adipose tissue on the surrounding adipocytes, an experiment was performed to load AIM in the culture process for differentiation of 3T3-L1 preadipocytes into mature adipocytes.\nAs AIM, recombinant AIM protein (rAIM) of mouse was used. rAIM was prepared by culturing human-derived HEK293T cells transfected with a vector expressing mouse AIM (pCAGGS-mAIM-HA plasmid) in a serum-free medium (FreeStyle™ 293 Expression Medium; Invitrogen). rAIM was purified from the culture supernatant thereof using an anti-HA antibody column. In other Reference Examples shown below, AIM used was a similar rAIM protein. AIM was loaded by adding AIM to a culture medium at a concentration of 5 μg/ml.\nIn addition, differentiation of 3T3-L1 cells was induced as shown in FIG. 13 by first proliferating 3T3-L1 cells by cultivating for 4 days (day(−2)-day 2), after which cultivating in a culture medium containing insulin, dexamethasone (DEX) and isobutylmethylxanthine (IBMX) for 2 days (day 2-day 4) to start differentiation induction stimulation, and further cultivating in a culture medium containing insulin for 2 days (day 4-day 6).\nAfter the differentiation induction stimulation period (day 2-day 6), the cells were continuously cultured in a culture medium free of such differentiation induction stimulation factors. Then, the cells on day 10 day from the start of the differentiation induction stimulation (day 12) were stained with oil-red-O, and the state of differentiation of 3T3-L1 cells into mature adipocytes was observed."}, "3T3-L1 cells": {"system": "3T3-L1 cells", "experiment": "rAIM uptake into 3T3-L1 cells by staining", "type": "cell-based, mouse", "experimental": "Differentiated 3T3-L1 cells (ins/DEX/IBMX stimulation (+)) and undifferentiated 3T3-L1 cells (ins/DEX/IBMX stimulation (−)) were incubated with rAIM (5 μg/ml) for 3 hr, and stained with AIM, PPARγ2, and DAPI. For staining with PPARγ2, a rabbit anti-PPARγ2 polyclonal antibody (Abcam plc) was used.\nIn addition, 3T3-L1 adipocytes were treated with rAIM for 3 hr, stained with AIM and endosome (FM 1-43FX (Invitrogen Corporation) was used), AIM and lysosome (Lyso Tracker Red DND-99 (Invitrogen Corporation) was used), and observed under a confocal microscope."}, "FAS": {"system": "FAS", "experiment": "Co-immunoprecipitation of AIM-HA and FLAG-FAS or FAS domains in HEK 293T cells", "type": "binding", "conditions": "Flag-labeled FAS domains in HEK293T cells stably expressing AIM-HA", "description": "In HEK 293T cells, rAIM labeled with HA-tag and FAS labeled with FLAG-tag were co-expressed, and the binding of AIM and FAS was confirmed by co-immunoprecipitation using an anti-Flag antibody or anti-HA antibody.\nThen, the AIM binding region in FAS was examined. FAS contains 8 domains of keto acyl synthase (KS), malonyl/acetyl transferase (MAT), dehydrase (DH), central core (CC), enoylreductase (ER), keto reductase (KR), acylcarrier protein (ACP) and thioesterase (TE).\nThe N-terminal of each domain of FAS was labeled with Flag sequence, and expressed in HEK293T cells where AIM-HA is stably expressed. The binding of AIM-HA and each domain of FAS was confirmed by co-immunoprecipitation using an anti-Flag antibody or anti-HA antibody.\nThe sequence encoding full-length FAS cDNA (nucleotide: +1-7515) labeled with FLAG-tag was constructed using a part of the cDNA clone provided by Dr. Ohara (Kazusa DNA Research Institute) and some fragments cloned by RT-PCR and pFLAG-CMV2 vector (Sigma).\nA cDNA fragment encoding KS, MAT, DH, CC, ER, KR, ACP or TE was prepared by subcloning to pFLAG-CMV2 vector by using full-length FAS cDNA as a template."}, "CD36-/- mice": {"system": "CD36-/- mice", "experiment": "rAIM uptake into adipose tissue of CD36+/+ and CD36-/- mice", "type": "in vivo", "conditions": "rAIM intravenous 300 μg/mouse, 16 hr", "experimental": "Then, CD36^+/+ mice (wild-type) and CD36^−/− mice (Febbraio et al., J. Biol. Chem., 1999, 274:19055-19062) were intravenously injected with rAIM (300 μg/mouse in PBS), sacrificed 16 hr later, and a section was prepared from adipose tissue. AIM and macrophage F4/80 in the section were stained."}, "AIM-/- mice [2]": {"system": "AIM-/- mice", "experiment": "mRNA level of markers in visceral fat tissue by QPCR", "type": "in vivo, mouse", "conditions": "rAIM administration group relative to BSA group, standardized with GAPDH", "experimental": "The mRNA level of adipocyte marker, preadipocyte marker, and lipid droplet formation-related genes in the RNA extracted from visceral fat tissue of the mice of the rAIM administration group and BSA administration group was measured by QPCR. The measurement values were standardized with the measurement values of GAPDH, and shown by an expression level relative to that of the adipose tissue administered with BSA."}, "[3]": {"system": "differentiated 3T3-L1 cells", "experiment": "Lipid droplet fusion in differentiated 3T3-L1 cells, oil-red-O", "type": "cell-based, mouse", "conditions": "rAIM 5 μg/ml", "experimental": "The differentiated 3T3-L1 cells were loaded with rAIM (5 μg/ml) according to the schedule shown in FIG. 13, E. The oil-red-0 staining was performed before and after rAIM loading.\nThe relative size of lipid droplet (Relative droplet size) was determined from an average diameter of 50 lipid droplets. […] The number of cells containing lipid droplets per unit area was measured in 5 different fields and the average was determined."}},
  "data": [
    {"molecule": "B1", "values": [
      {"measurement": "expression of lipid droplet formation-related genes (FSP27, Perilipin, Adipophilin)", "setting": "3T3-L1 adipocytes; day 2, relative to day 0", "result": "decreased markedly"},
      {"measurement": "expression of preadipocyte markers (PREF-1)", "setting": "3T3-L1 adipocytes; during rAIM treatment", "result": "did not increase"},
      {"measurement": "increase in body weight", "setting": "AIM-/- mice [1]", "result": "significantly small increase"},
      {"measurement": "increase in subcutaneous fat", "setting": "AIM-/- mice [1]", "result": "significantly small increase"},
      {"measurement": "increase in visceral fat", "setting": "AIM-/- mice [1]", "result": "significantly small increase"},
      {"measurement": "differentiation suppressive effect", "setting": "3T3-L1 preadipocytes; AIM concentration decreased to 1 μg/ml and 0.1 μg/ml", "result": "decreased"},
      {"measurement": "differentiation of 3T3-L1 cells into adipocytes", "setting": "3T3-L1 preadipocytes; AIM continuously loaded day(-2)-day 12", "result": "completely suppressed"},
      {"measurement": "number of dead cells", "setting": "3T3-L1 preadipocytes; AIM loading on 3T3-L1 cells", "result": "did not increase"},
      {"measurement": "differentiation of 3T3-L1 cells (cells having lipid droplet, oil-red-O, day 12)", "setting": "3T3-L1 preadipocytes; schedule B, AIM 5 μg/ml loaded day 2-day 12", "result": "nearly completely suppressed"},
      {"measurement": "differentiation of 3T3-L1 cells (cells having lipid droplet, oil-red-O, day 12)", "setting": "3T3-L1 preadipocytes; schedule C, AIM 5 μg/ml loaded only day 2-day 4", "result": "nearly completely suppressed"},
      {"measurement": "differentiation of 3T3-L1 cells into mature adipocytes", "setting": "3T3-L1 preadipocytes; schedule D, AIM loaded only before differentiation induction, day(-2)-day 2", "result": "not suppressed"},
      {"measurement": "intracellular localization of incorporated rAIM (endosome, lysosome staining)", "setting": "3T3-L1 cells; 3T3-L1 adipocytes, rAIM 3 hr, confocal microscope", "result": "co-localized with endosome"},
      {"measurement": "rAIM uptake efficiency", "setting": "3T3-L1 cells; cells showing low expression of PPARγ2, rAIM 5 μg/ml, 3 hr", "result": "markedly low"},
      {"measurement": "rAIM uptake (cells containing rAIM per 100 cells)", "setting": "3T3-L1 cells; mature adipocytes highly expressing PPARγ2, rAIM 5 μg/ml, 3 hr", "result": "efficient rAIM uptake"},
      {"measurement": "rAIM uptake", "setting": "3T3-L1 cells; preadipocytes free of differentiation induction stimulation, rAIM 5 μg/ml, 3 hr", "result": "no rAIM uptake"},
      {"measurement": "FAS domains bound to AIM", "setting": "FAS", "result": "ER, DH, TE and CC"},
      {"measurement": "AIM signal in adipocyte", "setting": "CD36-/- mice", "result": "markedly decreased"},
      {"measurement": "mRNA level of Adipophilin in visceral fat", "setting": "AIM-/- mice [2]", "result": "low"},
      {"measurement": "mRNA level of FSP27 in visceral fat", "setting": "AIM-/- mice [2]", "result": "low"},
      {"measurement": "mRNA level of PREF-1 in visceral fat", "setting": "AIM-/- mice [2]", "result": "increased"},
      {"measurement": "mRNA level of Perilipin in visceral fat", "setting": "AIM-/- mice [2]", "result": "low"},
      {"measurement": "mRNA of C/EBPα in visceral fat", "setting": "AIM-/- mice [2]", "result": "did not show difference"},
      {"measurement": "mRNA of GLUT4 in visceral fat", "setting": "AIM-/- mice [2]", "result": "did not show difference"},
      {"measurement": "mRNA of PPARγ2 in visceral fat", "setting": "AIM-/- mice [2]", "result": "did not show difference"},
      {"measurement": "number of lipid droplet-containing cells per unit area", "setting": "[3]; 6 days", "result": "significantly decreased"},
      {"measurement": "relative size of lipid droplets", "setting": "[3]; 6 days", "result": "significantly decreased"},
      {"measurement": "lipid droplet in the cell (oil-red-O)", "setting": "[3]; 6 days of culture", "result": "markedly decreased"}
    ]}
  ]
}
